Laboratory results as given in publication PMC4386031.

Target: ubiquitin (monoUb), P0CG48
Assay: NMR titration; NZF domain added to 15N-labeled monoUb or diUb; BEST-TROSY, chemical shift perturbation; NMR PBS (18 mM Na2HPO4, 7 mM NaH2PO4 pH 7.2, 150 mM NaCl), 298 K

Kd	Binder
1000 µM	NANKWSCHMCTYLNWPRAIRCTQCLSQRRT (domain or fragment, modifications not checked) [TRABID NZF2]
540 µM	RTQHWTCSVCTYENWAKAKRCVVCDHPRPN (domain or fragment, modifications not checked) [TRABID NZF3]
